In PMC6350941 (Cell reports, 2019):
Read-outs that look alike come from different tables or passages of the source.

Legend:
[1] = target: T1, FANCI (human);FANCD2 (human) (human;human, UniProt Q9NVI1;Q9BXW9 1-1328;1-1451, |); experiment: EMSA
FANCD2 (chicken) = FANCD2 (chicken) (chicken, UniProt Q68Y81 1-1439); experiment: EMSA
FANCI (chicken) = target: T2, FANCI (chicken) (chicken, UniProt B0I564 1-1338); experiment: EMSA
T2 sequence: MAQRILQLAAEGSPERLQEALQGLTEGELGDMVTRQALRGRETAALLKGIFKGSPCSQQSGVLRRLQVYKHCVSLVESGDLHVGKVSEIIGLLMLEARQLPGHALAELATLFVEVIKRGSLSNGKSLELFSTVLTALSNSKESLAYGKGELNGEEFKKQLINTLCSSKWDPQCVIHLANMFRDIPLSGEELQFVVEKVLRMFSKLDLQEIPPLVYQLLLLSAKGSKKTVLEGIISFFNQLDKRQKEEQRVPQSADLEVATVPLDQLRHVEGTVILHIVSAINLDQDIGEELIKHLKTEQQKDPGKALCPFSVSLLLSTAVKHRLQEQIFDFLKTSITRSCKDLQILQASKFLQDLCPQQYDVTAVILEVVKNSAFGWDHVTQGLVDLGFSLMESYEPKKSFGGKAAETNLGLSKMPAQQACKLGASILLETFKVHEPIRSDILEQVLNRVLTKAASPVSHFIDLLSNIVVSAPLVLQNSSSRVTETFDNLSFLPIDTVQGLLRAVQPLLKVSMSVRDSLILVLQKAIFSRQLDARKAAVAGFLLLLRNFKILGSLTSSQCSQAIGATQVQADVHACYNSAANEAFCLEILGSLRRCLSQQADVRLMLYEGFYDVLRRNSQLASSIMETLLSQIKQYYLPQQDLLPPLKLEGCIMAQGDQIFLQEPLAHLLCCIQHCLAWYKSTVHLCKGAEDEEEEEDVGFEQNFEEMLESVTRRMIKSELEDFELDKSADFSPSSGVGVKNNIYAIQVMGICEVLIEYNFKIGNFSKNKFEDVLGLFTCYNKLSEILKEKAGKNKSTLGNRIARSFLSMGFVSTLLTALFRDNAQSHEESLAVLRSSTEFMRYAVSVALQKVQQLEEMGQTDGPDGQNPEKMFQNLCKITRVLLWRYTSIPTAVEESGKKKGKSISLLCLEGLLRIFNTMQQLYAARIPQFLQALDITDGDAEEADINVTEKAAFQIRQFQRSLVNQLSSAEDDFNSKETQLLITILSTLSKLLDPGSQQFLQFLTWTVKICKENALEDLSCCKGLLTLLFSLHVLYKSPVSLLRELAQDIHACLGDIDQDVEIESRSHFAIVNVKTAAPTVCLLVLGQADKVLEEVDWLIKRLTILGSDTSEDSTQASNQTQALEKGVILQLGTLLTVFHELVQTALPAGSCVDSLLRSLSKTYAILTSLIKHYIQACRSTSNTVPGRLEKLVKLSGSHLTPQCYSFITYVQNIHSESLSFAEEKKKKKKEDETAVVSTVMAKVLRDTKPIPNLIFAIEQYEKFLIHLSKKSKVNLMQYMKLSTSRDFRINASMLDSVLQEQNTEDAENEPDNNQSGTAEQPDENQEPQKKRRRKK

FANCI (human) = FANCI (human) (human, UniProt Q9NVI1 1-1328); experiment: EMSA
[2] = target: FANCI (chicken);FANCD2 (chicken) (chicken;chicken, UniProt B0I564;Q68Y81 1-1338;1-1439, |); experiment: EMSA
[3] = target: chicken FANCD2 (His-tagged) (chicken, UniProt Q68Y81 1-1439); experiment: SEC
[4] = target: T1, FANCI (human);FANCD2 (human); experiment: EMSA; remark: listed apart in the source
[5] = target: T1, FANCI (human);FANCD2 (human); experiment: EMSA; remark: listed apart in the source
[6] = target: T1, FANCI (human);FANCD2 (human); experiment: EMSA; remark: listed apart in the source
[7] = target: T1, FANCI (human);FANCD2 (human); experiment: EMSA; remark: listed apart in the source

T1 sequence (Q9NVI1 whole entry, chain 1 of 2): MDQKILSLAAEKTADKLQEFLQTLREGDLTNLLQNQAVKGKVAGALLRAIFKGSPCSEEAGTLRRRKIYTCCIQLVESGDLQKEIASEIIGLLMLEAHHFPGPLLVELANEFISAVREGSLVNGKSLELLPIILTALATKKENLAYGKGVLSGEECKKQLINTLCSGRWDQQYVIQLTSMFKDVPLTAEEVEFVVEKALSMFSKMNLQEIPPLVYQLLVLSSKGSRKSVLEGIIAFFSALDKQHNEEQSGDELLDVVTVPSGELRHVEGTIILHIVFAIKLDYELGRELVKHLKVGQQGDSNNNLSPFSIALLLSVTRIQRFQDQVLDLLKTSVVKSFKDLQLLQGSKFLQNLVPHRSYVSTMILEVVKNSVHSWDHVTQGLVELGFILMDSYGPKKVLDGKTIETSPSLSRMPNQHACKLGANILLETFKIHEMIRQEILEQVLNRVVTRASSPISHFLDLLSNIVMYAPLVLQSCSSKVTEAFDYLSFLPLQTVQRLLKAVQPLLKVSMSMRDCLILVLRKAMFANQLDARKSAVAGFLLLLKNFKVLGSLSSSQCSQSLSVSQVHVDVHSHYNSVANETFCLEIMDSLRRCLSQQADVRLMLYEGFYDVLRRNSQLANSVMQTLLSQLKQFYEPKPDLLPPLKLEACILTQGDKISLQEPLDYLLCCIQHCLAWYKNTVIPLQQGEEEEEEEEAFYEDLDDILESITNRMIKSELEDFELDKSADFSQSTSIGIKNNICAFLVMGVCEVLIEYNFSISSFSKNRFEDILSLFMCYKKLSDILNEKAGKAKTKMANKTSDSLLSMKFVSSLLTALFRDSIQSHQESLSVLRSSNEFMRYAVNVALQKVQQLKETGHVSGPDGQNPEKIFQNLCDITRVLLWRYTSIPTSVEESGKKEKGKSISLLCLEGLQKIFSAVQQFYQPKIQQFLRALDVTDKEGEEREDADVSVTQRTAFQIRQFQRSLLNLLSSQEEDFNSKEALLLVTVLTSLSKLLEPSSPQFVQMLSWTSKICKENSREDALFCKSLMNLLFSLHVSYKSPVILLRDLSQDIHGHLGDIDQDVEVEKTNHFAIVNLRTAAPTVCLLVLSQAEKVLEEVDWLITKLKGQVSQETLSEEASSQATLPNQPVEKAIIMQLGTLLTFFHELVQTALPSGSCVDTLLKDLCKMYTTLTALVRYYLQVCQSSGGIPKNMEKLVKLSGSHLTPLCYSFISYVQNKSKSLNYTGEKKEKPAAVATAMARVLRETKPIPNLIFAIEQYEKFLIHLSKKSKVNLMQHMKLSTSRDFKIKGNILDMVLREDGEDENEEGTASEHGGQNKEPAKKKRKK
T1 sequence (Q9BXW9 whole entry, chain 2 of 2): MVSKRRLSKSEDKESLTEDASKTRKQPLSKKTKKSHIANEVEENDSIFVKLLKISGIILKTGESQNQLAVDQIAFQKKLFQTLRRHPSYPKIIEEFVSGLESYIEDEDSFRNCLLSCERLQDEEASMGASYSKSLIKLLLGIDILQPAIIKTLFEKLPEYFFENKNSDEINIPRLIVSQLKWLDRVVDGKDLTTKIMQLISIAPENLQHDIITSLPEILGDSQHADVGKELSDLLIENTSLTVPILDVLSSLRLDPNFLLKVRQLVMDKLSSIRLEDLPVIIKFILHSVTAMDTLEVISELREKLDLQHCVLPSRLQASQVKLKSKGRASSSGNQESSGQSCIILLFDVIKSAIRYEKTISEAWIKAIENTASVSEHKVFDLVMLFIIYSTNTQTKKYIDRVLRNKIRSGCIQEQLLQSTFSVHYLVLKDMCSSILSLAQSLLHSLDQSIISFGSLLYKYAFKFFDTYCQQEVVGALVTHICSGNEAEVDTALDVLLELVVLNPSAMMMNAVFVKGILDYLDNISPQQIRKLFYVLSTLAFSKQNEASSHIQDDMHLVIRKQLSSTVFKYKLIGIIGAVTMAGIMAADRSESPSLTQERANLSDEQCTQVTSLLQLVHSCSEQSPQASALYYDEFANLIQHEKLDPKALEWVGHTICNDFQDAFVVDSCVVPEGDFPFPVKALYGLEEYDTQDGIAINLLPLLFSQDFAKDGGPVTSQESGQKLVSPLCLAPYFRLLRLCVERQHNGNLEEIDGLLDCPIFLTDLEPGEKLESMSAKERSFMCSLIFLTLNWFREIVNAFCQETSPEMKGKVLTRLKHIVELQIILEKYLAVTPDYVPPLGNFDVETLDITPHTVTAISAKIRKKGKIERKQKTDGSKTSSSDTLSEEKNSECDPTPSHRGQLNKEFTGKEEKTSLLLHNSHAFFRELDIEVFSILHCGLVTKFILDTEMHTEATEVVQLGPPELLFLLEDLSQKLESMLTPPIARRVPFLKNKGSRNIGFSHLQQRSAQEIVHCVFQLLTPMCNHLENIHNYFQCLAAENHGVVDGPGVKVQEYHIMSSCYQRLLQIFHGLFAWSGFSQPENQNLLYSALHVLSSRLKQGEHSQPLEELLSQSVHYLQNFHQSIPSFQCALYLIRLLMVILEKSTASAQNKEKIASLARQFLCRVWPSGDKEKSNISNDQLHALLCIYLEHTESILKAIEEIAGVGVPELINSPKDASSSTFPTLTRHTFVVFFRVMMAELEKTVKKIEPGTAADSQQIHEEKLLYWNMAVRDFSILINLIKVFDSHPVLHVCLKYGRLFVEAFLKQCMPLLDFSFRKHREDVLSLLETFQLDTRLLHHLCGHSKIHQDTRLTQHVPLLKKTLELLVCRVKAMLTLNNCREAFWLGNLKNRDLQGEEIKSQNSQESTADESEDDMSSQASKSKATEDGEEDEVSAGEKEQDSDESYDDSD
Chain of FANCI (human) (Q9NVI1 whole entry): as the sequence (Q9NVI1 whole entry, chain 1 of 2) above
Chain of FANCD2 (chicken) (Q68Y81 whole entry): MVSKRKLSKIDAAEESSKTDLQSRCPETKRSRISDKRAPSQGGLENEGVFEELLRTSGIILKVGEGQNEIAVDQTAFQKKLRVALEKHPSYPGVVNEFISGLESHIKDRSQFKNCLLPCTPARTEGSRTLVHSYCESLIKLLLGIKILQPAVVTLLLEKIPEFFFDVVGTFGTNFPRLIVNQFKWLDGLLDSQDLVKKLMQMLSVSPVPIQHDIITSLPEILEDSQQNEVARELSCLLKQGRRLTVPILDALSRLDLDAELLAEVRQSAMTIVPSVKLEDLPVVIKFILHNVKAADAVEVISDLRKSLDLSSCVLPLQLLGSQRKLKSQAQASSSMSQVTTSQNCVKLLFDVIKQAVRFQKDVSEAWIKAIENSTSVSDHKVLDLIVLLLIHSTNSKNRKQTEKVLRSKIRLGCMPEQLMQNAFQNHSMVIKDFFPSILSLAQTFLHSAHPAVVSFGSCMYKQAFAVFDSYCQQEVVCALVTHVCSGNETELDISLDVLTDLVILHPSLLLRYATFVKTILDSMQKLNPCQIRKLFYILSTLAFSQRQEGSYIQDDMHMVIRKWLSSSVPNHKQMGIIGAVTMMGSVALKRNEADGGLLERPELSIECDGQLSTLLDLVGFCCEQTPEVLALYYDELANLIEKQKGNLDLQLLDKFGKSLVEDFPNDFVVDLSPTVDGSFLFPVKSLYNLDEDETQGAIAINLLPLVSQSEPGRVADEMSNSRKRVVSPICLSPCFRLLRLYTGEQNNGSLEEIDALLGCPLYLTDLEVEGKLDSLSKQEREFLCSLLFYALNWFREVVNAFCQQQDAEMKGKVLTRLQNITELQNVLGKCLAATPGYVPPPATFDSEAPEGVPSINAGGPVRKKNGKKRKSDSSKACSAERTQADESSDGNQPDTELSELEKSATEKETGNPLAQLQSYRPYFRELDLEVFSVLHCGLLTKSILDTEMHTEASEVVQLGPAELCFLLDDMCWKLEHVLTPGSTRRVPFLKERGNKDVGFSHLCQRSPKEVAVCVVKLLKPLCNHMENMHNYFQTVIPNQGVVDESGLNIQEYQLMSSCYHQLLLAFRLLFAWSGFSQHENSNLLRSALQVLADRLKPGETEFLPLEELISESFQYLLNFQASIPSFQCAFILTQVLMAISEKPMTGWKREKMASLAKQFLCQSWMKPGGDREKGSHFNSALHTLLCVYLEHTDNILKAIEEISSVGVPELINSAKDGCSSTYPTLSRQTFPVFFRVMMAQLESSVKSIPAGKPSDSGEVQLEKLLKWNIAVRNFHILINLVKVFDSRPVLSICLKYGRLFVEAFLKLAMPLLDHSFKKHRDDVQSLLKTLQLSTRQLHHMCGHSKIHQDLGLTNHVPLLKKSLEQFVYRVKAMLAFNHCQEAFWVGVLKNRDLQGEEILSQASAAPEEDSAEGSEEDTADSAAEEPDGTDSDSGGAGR
Chain of FANCI (chicken);FANCD2 (chicken) (Q68Y81 whole entry, one chain of several): as the sequence (Q68Y81 whole entry) above
Chain of chicken FANCD2 (His-tagged) (Q68Y81 whole entry): as above

B1: ssDNA(G48) (ssDNA)
DNA: GGATGAGAGGGCATGTGAGTGCGTGGCTGAGAGCGGGATTGCTGAGTCTGGTGCTGGGAT
B1: binds [1].

B2: ssRNA / ssRNA(G28) (ssRNA)
RNA: UGAUAAGAGGUCAUUUGAAUUCAUGGCUUAGAGCUUAAUUGCUGAAUCUGGUGCUGGGAU
B2: binds (FANCD2 (chicken)); binds [1]; binds (FANCI (chicken)). B2: binds (FANCI (human)); binds [2].

B3: dsRNA / dsRNA(G28) (dsRNA)
RNA 1: B2 RNA
RNA 2: AUCCCAGCACCAGAUUCAGCAAUUAAGCUCUAAGCCAUGAAUUCAAAUGACCUCUUAUCA
B3: binds (FANCD2 (chicken)); binds (FANCI (chicken)); binds (FANCI (human)). B3: binds [2].

B4: ssRNA(G48) (ssRNA)
RNA: GGAUGAGAGGGCAUGUGAGUGCGUGGCUGAGAGCGGGAUUGCUGAGUCUGGUGCUGGGAU
B4: binds [1].

B5: ssDNA / ssDNA(G28) (ssDNA)
DNA: TGATAAGAGGTCATTTGAATTCATGGCTTAGAGCTTAATTGCTGAATCTGGTGCTGGGAT
B5: binds [1].

B6: dsDNA / dsDNA(G28) (dsDNA)
DNA 1: B5 DNA
DNA 2: ATCCCAGCACCAGATTCAGCAATTAAGCTCTAAGCCATGAATTCAAATGACCTCTTATCA
B6: binds [1].

B7: RNA:DNA hybrid (DNA:RNA)
DNA: B5 DNA
RNA: B3 RNA 2
B7: binds (FANCD2 (chicken)); binds (FANCI (chicken)); binds (FANCI (human)). B7: binds [2].

B8: chicken FANCI (His-tagged) (natural protein, UniProt B0I564 1-1338, looked up)
chain: T2 sequence
B8: binds [3].

B9: R-loop(G45) = R-loop(GGC) (mixed)
DNA 1: CATTGCATATTTAAAACATGTTGGAGTGAGTGCGTGGCTGAGATCGGGATTGCTGAGTCTGGTGCTTCAAATGACCTCTTATCAAGTGAC
RNA: CGUGGUCUGAGUCGUUAGGGCUAGAGUCGGUGCGUGAGUG
DNA 2: GTCACTTGATAAGAGGTCATTTGAACACTCACGCACCGACTCTAGCCCTAACGACTCAGACCACGTCCAACATGTTTTAAATATGCAATG
B9: binds [4].

B10: R-loop(GAT) (mixed)
DNA 1: B9 DNA 1
RNA: AAAAAAAUAAAAAAAUAAAAAAAAUAAAAAAAUAAAAAAA
DNA 2: GTCACTTGATAAGAGGTCATTTGAATTTTTTTATTTTTTTATTTTTTTTATTTTTTTATTTTTTTTCCAACATGTTTTAAATATGCAATG
B10: binds [5].

B11: R-loop(G30_G-quad) (mixed)
DNA 1: CATTGCATATTTAAAACATGTTGGATTTAATTCAGGGCTTAGGGCTTGGGTACTGGGTCTAATACTTCAAATGACCTCTTATCAAGTGAC
RNA: B9 RNA
DNA 2: B9 DNA 2
B11: binds [6].

B12: D-loop(GGC) (structured_DNA)
DNA 1: B9 DNA 1
DNA 2: CGTGGTCTGAGTCGTTAGGGCTAGAGTCGGTGCGTGAGTG
DNA 3: B9 DNA 2
B12: binds [7].
